The record followed here is publication PMC4705668.

The target in this series is 111p (modern human L1Pa1 ORF1p) (Homo sapiens, UniProt Q9UN81 1-338). Nature of the series: filter binding; 0.05 M NaCl, 37 C; the three proteins indistinguishable; Filter binding: 20 mM Tris, 10% glycerol, 0.5 mM MgCl2, 0.1 mM DTT, 100 ug/ml BSA, 0.05 M NaCl, 37 C 1 h, 0.1 nM DNA; cross-linking: 20 mM Hepes pH 7.5, 10% gly.
Sequence of 111p (modern human L1Pa1 ORF1p) (Q9UN81 whole entry): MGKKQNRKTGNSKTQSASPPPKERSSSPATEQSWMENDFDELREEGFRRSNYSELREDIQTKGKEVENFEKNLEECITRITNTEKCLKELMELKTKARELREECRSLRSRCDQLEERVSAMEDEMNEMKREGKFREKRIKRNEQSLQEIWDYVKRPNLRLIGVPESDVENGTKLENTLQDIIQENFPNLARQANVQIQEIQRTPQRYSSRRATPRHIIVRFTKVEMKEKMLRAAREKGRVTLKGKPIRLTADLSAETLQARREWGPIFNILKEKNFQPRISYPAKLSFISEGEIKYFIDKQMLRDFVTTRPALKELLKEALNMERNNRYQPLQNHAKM

B1: mismatched duplex d29 / d29_c-mm (dsDNA)
DNA 1: AAAAAGTACACAGTCTAACATCAACTCGC
DNA 2: GCGAGTTGACGTCAGACCGTGCACTTTTT
With B1, the binding result is “binds”.
